Assay [1] has as its target NPM1 (human wildtype nucleophosmin, residues 1 to 290) (human) (UniProt P06748). Put plainly: SPR; Biacore T200; NPM1 immobilised on CM5 chip by amine coupling, DDX24 injected in a concentration series; PBS with 0.05% Tween-20 and 1% DMSO, pH 7.4, 25 °C; Langmuir 1:1 binding model.
Assay [2] concerns the target DDX24^E271K (DDX24 with the p.Glu271Lys mutation of MOVLD patients) (human) (UniProt Q9GZR7). Put plainly: SPR; Biacore T200; DDX24 immobilised on CM5 chip by amine coupling, NPM1 injected in a concentration series; PBS with 0.05% Tween-20 and 1% DMSO, pH 7.4, 25 °C; Langmuir 1:1 binding model.

Chain of NPM1 (human wildtype nucleophosmin, residues 1 to 290) (P06748 1-290): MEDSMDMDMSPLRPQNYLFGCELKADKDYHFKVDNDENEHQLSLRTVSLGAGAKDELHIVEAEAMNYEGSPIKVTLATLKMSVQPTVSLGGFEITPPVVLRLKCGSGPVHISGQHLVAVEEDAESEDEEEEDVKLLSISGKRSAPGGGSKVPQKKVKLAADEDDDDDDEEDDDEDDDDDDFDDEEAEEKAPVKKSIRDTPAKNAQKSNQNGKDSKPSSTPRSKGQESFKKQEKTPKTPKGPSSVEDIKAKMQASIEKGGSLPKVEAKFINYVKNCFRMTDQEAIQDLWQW
Chain of NPM1 (human wildtype nucleophosmin, residues 1 to 290) (human) (P06748 1-290): as above

Take “DDX24^E271K (DDX24 with the p.Glu271Lys mutation of MOVLD patients) (from UniProt Q9GZR7 28-859) (enzyme)”: in assay [1], the Kd was found to be 5.5 nM, the koff worked out at 0.00316 s⁻¹ and the kon came to 575000 M⁻¹ s⁻¹.

With “NPM1 (human wildtype nucleophosmin, residues 1 to 290) (from UniProt P06748 1-290) (natural protein)”, in assay [2], the Kd was determined as 2.92 nM, the koff was 0.00165 s⁻¹ and the kon turned out to be 564000 M⁻¹ s⁻¹.

The record behind these values is paper PMC10496494.
